System: Escherichia coli TOP10
Assay: shrunken log2 fold change of peptide-encoding DNA abundance (4.5 h post-induction vs induction); higher = less antimicrobial activity (less host growth inhibition)
Settings: time post-induction: 4.5 h; library: site-saturation at positions 5, 18, 19, 20
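Further: peptides expressed intracellularly from a pBAD plasmid library in pooled LB shake-flask culture, induced with 0.3% L-arabinose, DNA abundance read by NGS, three biological replicates, DESeq2 with apeglm shrinkage.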

Sequence | shrunken log2 fold change
RRIRMRPPRLPRPRPRPDHHPRP | -0.111
RRIRFRPPRLPRPRPRPRPMPRP | 0.856
RRIRVRPPRLPRPRPRPLLTPRP | -0.0362
RRIRFRPPRLPRPRPRPGRLPRP | 0.262
RRIRKRPPRLPRPRPRPAIDPRP | 0.113
RRIRLRPPRLPRPRPRPLLEPRP | -0.0263
RRIRMRPPRLPRPRPRPLLEPRP | 2.21
RRIRIRPPRLPRPRPRPGMFPRP | -0.284
RRIRSRPPRLPRPRPRPLIHPRP | -0.279
RRIRNRPPRLPRPRPRPWPHPRP | -0.0312
RRIRGRPPRLPRPRPRPKLIPRP | 0.479
RRIRFRPPRLPRPRPRPCIPPRP | 0.0633
RRIRSRPPRLPRPRPRPFMRPRP | 0.0496
RRIRHRPPRLPRPRPRPAYAPRP | -0.182
RRIRPRPPRLPRPRPRPLANPRP | -0.0209
RRIRKRPPRLPRPRPRPSLTPRP | -0.0632
RRIRIRPPRLPRPRPRPDKHPRP | -0.979
RRIRARPPRLPRPRPRPKSYPRP | -0.145
RRIRSRPPRLPRPRPRPICEPRP | 0.0675
RRIRNRPPRLPRPRPRPMCTPRP | -0.124
RRIRARPPRLPRPRPRPQVWPRP | 0.275
RRIRHRPPRLPRPRPRPHWEPRP | -0.211
RRIRLRPPRLPRPRPRPVAYPRP | -0.438
RRIRVRPPRLPRPRPRPGCWPRP | 0.594
RRIRGRPPRLPRPRPRPIFYPRP | 0.0354

Sequence | shrunken log2 fold change
RRIRHRPPRLPRPRPRPWYWPRP | -0.115
RRIRMRPPRLPRPRPRPMFVPRP | -0.298
RRIRRRPPRLPRPRPRPHQKPRP | 0.474
RRIRERPPRLPRPRPRPVTHPRP | -0.194
RRIRWRPPRLPRPRPRPDQTPRP | -0.00176
RRIRCRPPRLPRPRPRPLAVPRP | 0.0263
RRIRARPPRLPRPRPRPKHWPRP | 0.593
RRIRERPPRLPRPRPRPKSYPRP | -0.0792
RRIRYRPPRLPRPRPRPRCAPRP | -0.199
RRIRQRPPRLPRPRPRPAFKPRP | -0.015
RRIRWRPPRLPRPRPRPAVWPRP | 0.32
RRIRSRPPRLPRPRPRPWMFPRP | -0.0604
RRIRNRPPRLPRPRPRPCSFPRP | -0.217
RRIRDRPPRLPRPRPRPLINPRP | 0.125
RRIRCRPPRLPRPRPRPTCHPRP | 0.0303
RRIRLRPPRLPRPRPRPGCAPRP | 0.444
RRIRGRPPRLPRPRPRPTKGPRP | 0.2
RRIRVRPPRLPRPRPRPHGRPRP | -0.0651
RRIRKRPPRLPRPRPRPHQAPRP | -0.137
RRIRKRPPRLPRPRPRPDQEPRP | 0.0193
RRIRVRPPRLPRPRPRPATEPRP | -0.0882
RRIRIRPPRLPRPRPRPGFSPRP | -0.0749
RRIRPRPPRLPRPRPRPSSSPRP | -0.134
RRIRMRPPRLPRPRPRPNPIPRP | 0.188
RRIRGRPPRLPRPRPRPNHNPRP | -0.409

Sequence | shrunken log2 fold change
RRIRVRPPRLPRPRPRPSMYPRP | 0.531
RRIRYRPPRLPRPRPRPWRVPRP | 0.0112
RRIRYRPPRLPRPRPRPLFMPRP | -1.24
RRIRMRPPRLPRPRPRPHNCPRP | -0.0504
RRIRERPPRLPRPRPRPDMPPRP | -0.447
RRIRMRPPRLPRPRPRPITWPRP | -0.327
RRIRYRPPRLPRPRPRPPTGPRP | 0.0896
RRIRERPPRLPRPRPRPQHWPRP | -0.046
RRIRCRPPRLPRPRPRPSYEPRP | -0.374
RRIRMRPPRLPRPRPRPGGIPRP | 0.545
RRIRERPPRLPRPRPRPKELPRP | 0.00511
RRIRRRPPRLPRPRPRPIEYPRP | -0.124
RRIRFRPPRLPRPRPRPIIPPRP | -0.677
RRIRARPPRLPRPRPRPCKSPRP | 0.0355
RRIRPRPPRLPRPRPRPSGLPRP | -0.199
RRIRARPPRLPRPRPRPKQRPRP | 0.558
RRIRHRPPRLPRPRPRPWWRPRP | 0.219
RRIRCRPPRLPRPRPRPQNSPRP | -0.194
RRIRRRPPRLPRPRPRPNRQPRP | -0.031
RRIRERPPRLPRPRPRPFVAPRP | 0.0108
RRIRLRPPRLPRPRPRPWVQPRP | -0.118
RRIRQRPPRLPRPRPRPCGGPRP | 0.257
RRIRMRPPRLPRPRPRPEVMPRP | 2.84
RRIRGRPPRLPRPRPRPKMGPRP | 1.21
RRIRGRPPRLPRPRPRPIKLPRP | 0.125

Sequence | shrunken log2 fold change
RRIRERPPRLPRPRPRPICDPRP | -0.221
RRIRTRPPRLPRPRPRPWFNPRP | -0.471
RRIRRRPPRLPRPRPRPDCFPRP | 0.681
RRIRQRPPRLPRPRPRPCVNPRP | 0.0293
RRIRARPPRLPRPRPRPHRKPRP | -0.000548
RRIRGRPPRLPRPRPRPSLDPRP | 0.607
RRIRPRPPRLPRPRPRPYALPRP | -1.08
RRIRNRPPRLPRPRPRPSGAPRP | -0.0216
RRIRIRPPRLPRPRPRPDFVPRP | -0.0852
RRIRIRPPRLPRPRPRPMTSPRP | -0.0513
RRIRHRPPRLPRPRPRPSVIPRP | -0.369
RRIRSRPPRLPRPRPRPTFQPRP | 0.0282
RRIRARPPRLPRPRPRPNGGPRP | -0.01
RRIRFRPPRLPRPRPRPPACPRP | 0.628
RRIRSRPPRLPRPRPRPMTRPRP | 0.381
RRIRSRPPRLPRPRPRPYWYPRP | -1.45
RRIRMRPPRLPRPRPRPMAHPRP | -0.0858
RRIRFRPPRLPRPRPRPSIQPRP | -0.0528
RRIRHRPPRLPRPRPRPAQGPRP | -0.197
RRIRNRPPRLPRPRPRPRGRPRP | 0.316
RRIRYRPPRLPRPRPRPWWFPRP | -0.195
RRIRSRPPRLPRPRPRPKFGPRP | -0.15
RRIRNRPPRLPRPRPRPMKTPRP | -0.0393
RRIRCRPPRLPRPRPRPGILPRP | -0.233
RRIRARPPRLPRPRPRPACNPRP | 0.089

Sequence | shrunken log2 fold change
RRIRQRPPRLPRPRPRPLECPRP | -0.184
RRIRERPPRLPRPRPRPFTFPRP | -0.275
RRIRTRPPRLPRPRPRPFVNPRP | -0.223
RRIRMRPPRLPRPRPRPPCFPRP | 0.257
RRIRERPPRLPRPRPRPSNVPRP | -0.441
RRIRFRPPRLPRPRPRPWLAPRP | 2.73
RRIRLRPPRLPRPRPRPGPKPRP | 0.352
RRIRCRPPRLPRPRPRPPIVPRP | -0.089
RRIRARPPRLPRPRPRPVDYPRP | 0.197
RRIRRRPPRLPRPRPRPEQPPRP | 0.389
RRIRHRPPRLPRPRPRPEHCPRP | 0.0155
RRIRMRPPRLPRPRPRPAGTPRP | 0.627
RRIRERPPRLPRPRPRPTQFPRP | -0.118
RRIRIRPPRLPRPRPRPYSNPRP | -0.385
RRIRTRPPRLPRPRPRPADPPRP | 0.0203
RRIRVRPPRLPRPRPRPVSLPRP | 0.106
RRIRCRPPRLPRPRPRPSVSPRP | -0.185
RRIRWRPPRLPRPRPRPSFMPRP | -0.304
RRIRTRPPRLPRPRPRPHYHPRP | -0.853
RRIRARPPRLPRPRPRPSCQPRP | 0.133
RRIRSRPPRLPRPRPRPTPDPRP | 0.441
RRIRYRPPRLPRPRPRPSGMPRP | -0.0611
RRIRPRPPRLPRPRPRPQRFPRP | 0.0622
RRIRGRPPRLPRPRPRPCIKPRP | 0.268
RRIRLRPPRLPRPRPRPTMAPRP | -0.283

Source: the supplement of paper PMC9112550, “Optimization of the antimicrobial peptide Bac7 by deep mutational scanning” (BMC Biology, 2022)
